{"source": "patent US20240279288A1", "about": "“APPLICATION OF PLANT JAZ PROTEINS AND DERIVED POLYPEPTIDES IN PREVENTION AND TREATMENT OF HUMAN AND ANIMAL TUMORS” (ANYANG INSTITUTE OF SINO-COTTON INDUSTRY INNOVATION, priority 2021, published 2024)", "molecules": {"B1": {"name": "GhJAZ1: cotton JAZ1 protein, gene number Gh_A05G0260, sequence SEQ ID No. 4; prokaryotically expressed with His tag, about 30 KD (protein)", "chain": "MSSCSESTAMKPARSPEKPSFAQTCNLLSQYLKEKGSFGDLSLGMTCNVEANGTPVVPPPTMNLFPLNDKSDDVCGRNGGNPKNLTSMDLFPQQAGLASKDDSPNKLEPQTAPMTIFYGGQVIVFNDFPANKAKEIMLLASNSSSQSNNSFNPIPFTSSIARSPIESSIGVPPTSKPVHPAQRAVPGDLPIARRASLHRFLEKRKDRITAKAPYQINNSAAAPSLSGDNKSWLGLAAQSP", "modifications": "His tag", "notes": "prokaryotically expressed with His tag, about 30 KD"}}, "key": {"[1]": {"system": "downstream genes of c-Myc in MCF7 cells", "test": "Transcriptome sequencing and RT-PCR of c-Myc downstream genes, MCF7", "format": "cell-based, human", "method": "Identification at the RNA level: RNA was extracted using RNA extraction kit (RNAprep Pure Polysaccharide Polyphenol Plant Total RNA Extraction Kit (DP441), manufacturer: TIANGEN BIOTECH (BEIJING) CO., LTD.), and then cDNA was obtained using two-step reverse transcription kit (a third-generation premix for two-step de-genomization and reverse transcription, Cat. No.: MR05201). cDNA as a template was added into a 96-well plate, with addition of SYBR®Green I chimeric dye (an antibody dye quantitative PCR premix, Cat. No.: MQ10101) and gene primers for three-step qPCR amplification. Finally, the relative gene expression was calculated based on the Ct value.\nAnd it was validated to be consistent with the transcriptome results (B in FIG. 9) by RT-PCR (the steps of method as Example 1). Wherein, the sequences of RT-PCR primers were as follows: […]\nWherein, the sequences of primers were as follows: […]"}, "[2]": {"system": "MCF7 breast cancer cells", "test": "Cell cycle detection (PI DNA content), MCF7", "format": "cell-based, human", "conditions": "0.691 μM, 24 h, vs PBS", "method": "Cell cycle detection: cells were moderately digested by trypsin, and collected by centrifugation with supernatant removed, and then cells were washed with PBS, and collected by centrifugation at 1,500 rpm for 5 minutes to prepare a single-cell suspension (at a concentration of 1×10^6/ml). 1 ml of single-cell suspension was then taken and centrifuged with the supernatant discarded, and then 500 μl of 70% pre-cooled ethanol were added to fix the cells overnight at 4° C. The next day, cells were collected by centrifugation, resuspended with 1 ml of PBS and centrifuged, and then 100 μl of RNase A solution were added to the cell pellet, followed by placement in water bath at 37° C. for 30 min, and then 400 μl of PI staining solution was added and mixed well, followed by incubation at 4° C. in dark for 30 min and detection on the instrument to record under red fluorescence at the excitation wavelength of 488 nm. Specifically, a DNA content detection kit (cell cycle) (Solarbio, Cat. No.: CA1510) was used."}, "[3]": {"biological_target": "c-Myc (Homo sapiens, UniProt P01106)", "sequence (P01106 whole entry, the tested form may be a part)": "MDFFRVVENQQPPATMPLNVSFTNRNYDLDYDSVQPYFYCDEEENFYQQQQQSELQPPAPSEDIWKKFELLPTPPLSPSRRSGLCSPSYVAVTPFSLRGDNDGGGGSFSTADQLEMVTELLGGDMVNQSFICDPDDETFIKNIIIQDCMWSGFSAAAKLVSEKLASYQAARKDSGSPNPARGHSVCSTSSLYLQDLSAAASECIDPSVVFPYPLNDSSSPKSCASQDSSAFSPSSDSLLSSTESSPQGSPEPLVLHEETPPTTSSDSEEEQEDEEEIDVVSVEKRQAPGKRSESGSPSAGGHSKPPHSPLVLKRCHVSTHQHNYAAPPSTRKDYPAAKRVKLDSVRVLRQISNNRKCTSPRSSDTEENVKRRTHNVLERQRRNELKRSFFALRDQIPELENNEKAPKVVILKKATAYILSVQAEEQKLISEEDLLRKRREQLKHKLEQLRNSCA", "test": "GST Pull down experiment with c-Myc", "format": "binding", "design": "with the full length of c-Myc and NMYC, respectively; expressed in transfected cells; host or cells: yeast Y2HGold", "conditions": "GST-c-Myc and His-GhJAZ1 fusion proteins", "description": "Simultaneously, the interaction was validated by GST Pull down experiment. Firstly, pET-30a-GhJAZ1 (the DNA sequence set forth in SEQ ID No. 39 was inserted into pET-30a (+) vector (YouBio, Cat. No.: VT1212) between NdeI and HindIII) and pGEX-4T-1-c-Myc vectors (the CDS sequence of c-Myc (NCBI accession number: NM_002467.6) was inserted into pGEX-4T-1 vector (YouBio, Cat. No.: VT1253) between BamHI and EcoRI) was constructed and transformed into Escherichia coli BL21, which was placed on ice for 30 min, followed by heat shock at 42° C. for 60 s, and then placed on ice for 2 min, and then LB medium was added for cultivation at 37° C. and 200 rpm for 1 h, which was plated onto LB plates containing corresponding antibiotics for cultivation at 37° C. After colonies grown out, monoclonal clones were picked and shaking for incubation and expanded until the medium began to turn slightly white, and then different concentrations of IPTG were added for induction and cultured overnight under different temperatures setting. Subsequently, centrifugation at 5,000 rpm, 4° C. was carried out for 10 min, with addition of an equal volume of PBS (supplemented with PMSF and DTT) for resuspending. […] The supernatant was transferred into a protein purification column, and washed and eluted following incubation, and then proteins were detected and collected dropwise using protein pre-staining solution. […]"}}, "data": [{"molecule": "B1", "values": [{"measurement": "expression of cell cycle-related genes (transcriptome, validated by RT-PCR)", "setting": "[1]; MCF7, 0.691 μM, 24 h", "value": "down regulated"}, {"measurement": "expression of CCNE1", "setting": "[1]; MCF7, RT-PCR", "value": "extremely significantly upregulated"}, {"measurement": "expression of P21 gene", "setting": "[1]; MCF7, RT-PCR", "value": "extremely significantly upregulated"}, {"measurement": "expression of apoptosis related genes Bcl2, BAX, HK2, FASN, MCM5 downstream of c-Myc", "setting": "[1]; MCF7, RT-PCR", "value": "extremely significantly downregulated"}, {"measurement": "expression of cell cycle-related genes CCNA2, CCNB1, CCND1", "setting": "[1]; MCF7, RT-PCR", "value": "extremely significantly downregulated"}, {"measurement": "proportion of G2-M phase cells (MCF7)", "setting": "[2]", "value": "increase"}, {"measurement": "proportion of S-phase cells (MCF7)", "setting": "[2]", "value": "decrease"}, {"measurement": "interaction with c-Myc", "setting": "[3]", "value": "interacted"}]}]}
